Measurements published in the Immune Epitope Database (IEDB).

Key:
Assay in all cases: IEDB peptide-MHC binding, purified MHC/competitive/radioactivity; filed as Kd, often an IC50 or EC50 that approximates it; ≥ and ≤ were set here for values at or beyond the usual limits of such assays
[1] = molecular target: HLA-A*02:02
[2] = molecular target: HLA-A*02:06
[3] = molecular target: HLA-A*02:03
[4] = molecular target: HLA-A*31:01; conditions: source organism: Vaccinia virus WR
[5] = molecular target: HLA-A*33:01; conditions: source organism: Vaccinia virus WR
[6] = molecular target: HLA-A*68:01; conditions: source organism: Vaccinia virus WR
[7] = molecular target: HLA-A*11:01; conditions: source organism: Vaccinia virus WR
[8] = molecular target: HLA-A*03:01; conditions: source organism: Vaccinia virus WR
[9] = source organism: Vaccinia virus WR
[10] = source organism: SARS coronavirus Tor2
[11] = source organism: Lassa virus Josiah
[12] = source organism: Dengue virus 4 Philippines/H241/1956
[13] = source organism: Mammarenavirus tacaribeense
[14] = source organism: Dengue virus 2 Jamaica/1409/1983
[15] = source organism: Human immunodeficiency virus type 1 (CLONE 12)

Sequence | Kd [1, 9] [µM] | Kd [2, 9] [µM] | Kd [3, 9] [µM] | further results
ITTLLNETA | 0.414 | 0.596 | 0.936 | –
DIYDAVRAFL | 1.46 | 12.1 | 6.95 | –
SINNQLMYDI | 0.492 | 4.83 | 0.482 | –
NIISYIILFI | 0.123 | 0.072 | 0.133 | –
NIKPVIVPDI | 10.3 | 0.945 | 0.745 | –
LIISTDQDT | ≥ 77.8 | ≥ 77.1 | ≥ 78.1 | –
YTGGYDVSL | 1.99 | ≥ 20.3 | 6.05 | –
TTFITVLTSV | 1.12 | 0.166 | 0.0161 | –
TTNNLLEQLI | 8.88 | 13.1 | ≥ 21 | –
VQLSNNKYV | 7.34 | 0.214 | 0.541 | –
NLTQLFKYV | 0.32 | 0.657 | 0.238 | –
LLFNKVTLA | – | – | – | Kd [1, 10]: 0.000953 µM; Kd [2, 10]: 0.00901 µM; Kd [3, 10]: 0.00106 µM
LTTVFIKYV | 3.65 | 0.13 | 0.676 | –
DTIAHINTLI | 1.16 | ≥ 62.2 | 0.114 | –
YLGHSAGFT | 0.874 | 4.55 | 0.225 | –
CNYSKYWYL | – | – | – | Kd [1, 11]: 3.66 µM; Kd [2, 11]: 2.7 µM; Kd [3, 11]: 7.13 µM
SVDVDIYDAV | 0.000427 | 0.0033 | 0.00918 | –
YIENTNQGNI | 1.22 | 6.2 | 0.582 | –
PANINDKQIM | ≥ 49.5 | 10.9 | ≥ 43.1 | –
VAVNKSNKPL | 2.75 | 17.6 | 5.13 | –
KLSMGLIAIA | – | – | – | Kd [3, 12]: 0.0229 µM
KSFFWFNEV | – | – | – | Kd [1, 13]: 0.0619 µM; Kd [2, 13]: 0.00318 µM; Kd [3, 13]: 0.264 µM
DTSNNIAEYI | 3.33 | ≥ 45.7 | 9.22 | –
LTNKKYRCMA | ≥ 34.8 | ≥ 69.8 | 5.4 | –

Sequence | Kd [1, 9] [µM] | Kd [2, 9] [µM] | Kd [3, 9] [µM] | further results
TLDAANHSI | – | – | – | Kd [1, 10]: 0.0924 µM; Kd [2, 10]: 0.0289 µM; Kd [3, 10]: 0.283 µM
IMKDGRVLV | – | – | – | Kd ([3]; source organism: Dengue virus 2 16681-PDK53): 0.019 µM
NITTLLNET | 1.3 | 2.31 | 2.9 | –
TAATKRYPGV | ≥ 25.5 | 5.57 | 10.5 | –
YLLGDSDSVA | 0.00197 | 0.135 | 0.0228 | –
LIYDDNIDSI | 0.121 | 0.212 | 0.0261 | –
QTVDFTDCRT | ≥ 30.5 | 3.64 | ≥ 54.3 | –
LVDKEDTDIV | 3.7 | ≥ 27.1 | 1.68 | –
IVCSKTVKNV | 10.8 | 2.76 | 0.503 | –
YVASYLLAA | – | – | – | Kd ([3]; source organism: Homo sapiens): 0.000978 µM
VVECLTVPNI | 8.42 | 0.301 | 19.6 | –
RVKQWVMDTL | 3.48 | ≥ 27.8 | 0.689 | –
TILIRTGLLV | – | – | – | Kd [2, 14]: 0.101 µM
ILIRTGLLV | – | – | – | Kd [3, 14]: 0.0163 µM
DLKHATDYIA | 8.76 | 1.05 | 2.96 | –
CLTVPNITI | 0.0959 | 1.66 | 0.0752 | –
AVFKMSPGYV | – | – | – | Kd [3, 12]: 0.00715 µM
LMIFISSFL | 0.000651 | 0.0178 | 0.00013 | –
RLYNSLKRFT | 1.06 | 7.29 | 0.444 | –
IALALEQYGI | 0.98 | 1.13 | 4.92 | –
ALSGVFCGV | – | – | – | Kd [1, 10]: 0.00116 µM; Kd [2, 10]: 0.0498 µM; Kd [3, 10]: 0.0116 µM
RILQQLLFI | – | – | – | Kd [2, 15]: 0.0216 µM; Kd [3, 15]: 0.543 µM
QILMKTANNY | – | – | – | Kd [4]: 2.38 µM; Kd [5]: 8.87 µM; Kd [6]: 5.02 µM; Kd [7]: 0.879 µM; Kd [8]: 0.106 µM
